Laboratory results taken from article PMC7485978, “A tyrosine phosphoregulatory system controls exopolysaccharide biosynthesis and biofilm formation in Vibrio cholerae” (PLoS Pathogens, 2020).

Legend:
[1] = biological target: VpsO-503^(E519A, R522A, R525A) kinase domain; assay: SEC-MALS; 25 uL of each VpsO protein at 1.5 mg/mL injected on a silica-based SEC analytical HPLC column; 25 mM Tris pH 8.0, 50 mM NaCl, 1 mM DTT; room temperature
[2] = biological target: VpsU, low-molecular-weight phosphotyrosine protein phosphatase; assay: SEC

Row | Substance | stoichiometry N [1] | stoichiometry N [2]
1 | VpsO-503^(E519A, R522A, R525A) kinase domain (domain or fragment) | 2 | –
2 | VpsU, low-molecular-weight phosphotyrosine protein phosphatase (enzyme) | – | 2
